Results from patent US20210032351A1 (XDCEXPLORER SHANGHAI, published 2021).
Where “and” joins values, the source holds several entries; their conditions need not be identical. Identical values can stand only once. Values belong to the molecule of their own block, whether it stands above or below them.

Experiments:
[1] = target: human EGFRvIII protein, full length, on transfected cells (human) (UniProt P00533); assay: FACS, U87MG-hEGFRvIII 1F9 cells
[2] = target: human EGFRvIII protein, full length, on transfected cells (human) (UniProt P00533); assay: FACS, CHO-K1-hEGFRvIII 1E3 cells
[3] = target: human EGFRvIII protein, full length, on transfected cells (human) (UniProt P00533); assay: FACS, U87MG-hEGFRvIII 2G2 cells
[4] = target: human EGFRvIII protein, full length, on transfected cells (human) (UniProt P00533); assay: FACS, 293F-hEGFRvIII 1F3 cells
[5] = target: human EGFRvIII protein, full length, on transfected cells (human) (UniProt P00533); assay: FACS, U87MG-hEGFRvIII 1D1 cells
[6] = target: human EGFRvIII protein, full length, on transfected cells (human) (UniProt P00533); assay: FACS, U87MG-hEGFRvIII 1B3 cells
[7] = target: human EGFRvIII protein, full length, on transfected cells (human) (UniProt P00533); assay: FACS, CHO-K1-hEGFRvIII 2D11 cells
[8] = target: human EGFRvIII protein, full length, on transfected cells (human) (UniProt P00533); assay: FACS, 293F-hEGFRvIII 1D11 cells
[9] = target: human EGFRvIII protein, full length, on transfected cells (human) (UniProt P00533); assay: FACS, 293F-hEGFRvIII 1C10 cells
[10] = target: human EGFRvIII protein, full length, on transfected cells (human) (UniProt P00533); assay: FACS, CHO-K1-hEGFRvIII 1G10 cells
[11] = target: human EGFRvIII protein, full length, on transfected cells (human) (UniProt P00533); assay: FACS, U87MG-hEGFRvIII 2C6 cells
[12] = target: human wild-type EGFR protein on the cell surface (human) (UniProt P00533); assay: FACS on normal human primary hepatocytes
[13] = target: human EGFRvIII-hFc protein (human) (UniProt P00533); assay: ELISA, EGFRvIII-hFc coated
[14] = target: EGFRvIII-his (purchased from Sino Biological) (UniProt P00533); assay: BLI (OctetRED), antibody on anti-human Fc (AHC) biosensor, EGFRvIII-his in solution
[15] = target: human wild-type EGFR protein on the cell surface (human) (UniProt P00533); assay: FACS on A431 tumor cells
[16] = target: EGFR-his (purchased from Sino Biological) (UniProt P00533); assay: BLI (OctetRED), antibody on anti-human Fc (AHC) biosensor, EGFR-his in solution
[17] = target: human EGFRvIII protein on the cell surface (human) (UniProt P00533); assay: FACS on U87MG-EGFRvIII cells
[18] = target: human wild-type EGFR protein on the cell surface (human) (UniProt P00533); assay: FACS, MFI on A431 cells over MFI on normal primary hepatocytes
pep14 = target: T1, pep14 (cysteine pairing not given here); assay: peptide dot matrix ELISA
T1 peptide: GSCVRACGADSYEMEEK(Biotin)

pep15 = target: T2, pep15 (cysteine pairing not given here); assay: peptide dot matrix ELISA
T2 peptide: SCVRACGADSYEMEEDK(Biotin)

pep05 = target: T3, pep05 (cysteine pairing not given here); assay: peptide dot matrix ELISA
T3 peptide: KGNYVVTDHGSCVRACK(Biotin)

pep19 = target: T4, pep19; assay: peptide dot matrix ELISA
T4 sequence (peptide, C-terminal K(Biotin)): ACGADSYEMEEDGVRKK

[19] = target: T5, human EGFRvIII protein on the cell surface (human, UniProt P00533 25-1210); assay: FACS on U87MG-hEGFRvIII cells
T5 construct: whole, on cells; the cell line is named under assay; also called hEGFRvIII; U87MG-hEGFRvIII

[20] = target: T6, human EGFRvIII-hFc protein (human, UniProt P00533 25-645); assay: ELISA, EGFRvIII-hFc coated
T6 construct: extracellular domain; also called immunogen A; hFc-tagged EGFRvIII protein; not shown: human IgG Fc fragment (hFc) of the pCpC vector

[21] = target: T5, human EGFRvIII protein on the cell …; assay: FACS on U87MG-EGFRvIII cells
Procedure, shortened: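 U87MG-EGFRvIII, A431 and primary human hepatocytes (2×10⁶ cells/mL, goat-serum blocked) were incubated with antibody on ice for 2 h, then with an Alexa 488 secondary (1:1000) for 1 h and fixed in 4% paraformaldehyde. Mean fluorescence intensity was read by flow cytometry, and EC50 was derived by curve fitting.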

[22] = target: T7, human wild-type EGFR protein on the cell surface (human, UniProt P00533 25-1210); assay: FACS on A431 cells; A431 cells (large amount of wild-type EGFR on the surface)
T7 construct: whole, on cells; Endogenous on A431, HEB, U87MG cells and normal human primary hepatocytes; transfected on CHOk1-EGFR cells; The cell is named under assay; also called A431; HEB
Description: The cells are washed twice with the HBSS buffer and are counted, and then the cells are diluted with the HBSS buffer to 2×10⁶ cells/ml, added with 1% goat serum blocking solution, with the percentage being the mass percentage, and incubated on ice for 30 minutes, and then centrifugally washed twice with the HBSS buffer. The collected cells are suspended to 2×10⁶ cells/mL with an FACS buffer (HBSS+1% BSA, with the percentage being the mass percentage), added to a 96-well FACS reaction plate at 100 μL/well, then added with 100 μL/well of the purified EGFRvIII antibody (samples to be tested) obtained in example 2, and incubated on ice for 2 hours. The plate is centrifugally washed twice with the FACS buffer, added with 100 μL/well of a fluorescence (Alexa 488) labeled secondary antibody (purchased from Invitrogen), and then incubated on ice for 1 hour. The plate is centrifugally washed 3 times with the FACS buffer, added with 100 μL/well of a fixing solution [4% (v/v) paraformaldehyde] for suspending the cells, and centrifugally washed twice with the FACS buffer after 10 minutes. The cells are suspended in 100 μL of the FACS buffer, and the results are detected and analyzed by FACS (FACS Calibur, purchased from BD). Data analysis is performed by using the software (CellQuest) to obtain the mean fluorescence intensity (MFI) of the cells. Data is further analyzed by using the software (GraphPad Prism5) to perform data fitting and calculate EC50. […] A431 cells (human epidermal cell cancer cell lines) have a large amount of wild-type EGFR protein expressed on the surface thereof. […] U87MG cells (human glioma cell lines) have a small amount of wild-type EGFR protein expressed on the surface thereof, while HEB cells (human glioma cell lines) have a high level of wild-type EGFR protein expression on the surface thereof.

[23] = target: T6, human EGFRvIII-hFc protein; assay: ELISA, EGFRvIII-hFc coated; remark: listed apart in the source
Description: The purified immunogen A (EGFRvIII-hFc) obtained in example 1 (for the preparation method, see step (I) in example 1) is diluted with PBS to a final concentration of 1.0 μg/mL, and then added to a 96-well ELISA plate at 100 μl/well. The plate is sealed with a plastic film and incubated at 4° C. overnight. The next day, the plate is washed twice with a plate washing solution [PBS+0.01% (v/v) Tween20], and added with a blocking solution [PBS+0.01% (v/v) Tween20+1% (w/w) BSA] for blocking 2 hours at room temperature. […] The plate is incubated for 2 hours at 37° C., and then washed 3 times with the plate washing solution [PBS+0.01% (v/v) Tween20]. The plate is added with an HRP (horseradish peroxidase) labeled secondary antibody (purchased from Sigma), incubated at 37° C. for 2 hours, and then washed 3 times with the plate washing solution [PBS+0.01% (v/v) Tween20]. The plate is added with 100 μl of TMB substrate/well, incubated for 30 minutes at room temperature, and then added with 100 μl of stopping solution (1.0N HCl)/well. A450 nm value is read using an ELISA plate reader (SpectraMax 384plus, purchased from Molecular Device), and the results are shown in FIG. 11 and table 19.

MFI [12]: 277 MFI
EC50 [13]: 0.49 nM
Maximum OD450 value [13]: 3.41 OD450
Kd [14]: 1.71 nM
koff [14]: 0.000141 s⁻¹
kon [14]: 82800 M⁻¹ s⁻¹
MFI [15]: 9780 MFI
Kd [16]: 205 nM
koff [16]: 0.00353 s⁻¹
kon [16]: 17200 M⁻¹ s⁻¹
EC50 [17]: 4.93 nM
Maximum mean fluorescence intensity [17]: 18300 MFI
Selective window (MFI A431/Hepatocytes) [18]: 35.5 fold
B1: Humanized antibody h75G7C6-1 (antibody, human IgG1, V domains shown)
VH: EVQLVQSGAEVKKPGASVKVSCKASGYTFTDYNMDWVKQAPGQGLEWIGDINPNNADTIYNQKFKGRVTLTVDKSTSTVYMELSSLRSEDTAVYYCARGDYDGYYPVYYAMDYWGQGTTVTVSS
VL: EIVLTQSPATLSLSPGERATLSCRASSSVSSSYLHWYQQKPGQAPRLLIYSTSNLAAGIPARFSGSGSGTDFTLTISSLEPEDFAVYYCQQYSGYPLTFGGGTKVEIK

MFI [12]: 250 MFI
EC50 [13]: 0.38 nM
Maximum OD450 value [13]: 3.38 OD450
Kd [14]: 1.54 nM
koff [14]: 0.00014 s⁻¹
kon [14]: 90600 M⁻¹ s⁻¹
MFI [15]: 11800 MFI
Kd [16]: 200 nM
koff [16]: 0.00405 s⁻¹
kon [16]: 20300 M⁻¹ s⁻¹
EC50 [17]: 5.67 nM
Maximum mean fluorescence intensity [17]: 18300 MFI
Selective window (MFI A431/Hepatocytes) [18]: 47 fold
B2: Humanized antibody h75G7C6-2 (antibody, human IgG1, V domains shown)
VH: EVQLVQSGAEVKKPGASVKVSCKASGYTFTDYNMDWVKQAPGQGLEWIGDINPNNADTIYNQKFKGRVTLTVDKSTSTVYMELSSLRSEDTAVYYCARGDYDGYYPVYYAMDYWGQGTTVTVSS
VL: ENVLTQSPATLSLSPGERATLSCRASSSVSSSYLHWYQQKPGQAPRLLIFSTSNLAAGIPARFSGSGSGTDYTLTISSLEPEDFAVYYCQQYSGYPLTFGGGTKVEIK

More lines, now with the values behind:

Molecule: IgG subtype control (antibody)
cell mean fluorescence intensity [1]: 1.7
cell mean fluorescence intensity [2]: 2.4
cell mean fluorescence intensity [3]: 1.8
cell mean fluorescence intensity [4]: 4.1
cell mean fluorescence intensity [5]: 3
cell mean fluorescence intensity [6]: 2.3
cell mean fluorescence intensity [7]: 1.8
cell mean fluorescence intensity [8]: 3.6
cell mean fluorescence intensity [9]: 4.3
cell mean fluorescence intensity [10]: 2.4
cell mean fluorescence intensity [11]: 1.8

B3: Chimeric antibody 63A10 (antibody, V domains shown)
VH: QVQLQQSGAELARPGASVKMSCKASGYTFISFTMHWVKQRPGQGLEWIGYINPNSGYTKYNQKFKDKATLTAGQSSSTAYMQLSSLTSEDSAVYYCTRGGGRGFAYWGQGTLVTVSA
VL: DILMTQSPSSMSVSLGDTVTITCHASQDINSNIGWLQQKPGKSFKALIYHGTNLEDGVPSRFSGSGSGADYSLTISSLESEDFADYYCVQYAQFPFTFGSGTKLEIK
ELISA signal (pep14): 0.08 and 0.23
ELISA signal (pep15): 0.14 and 0.11
ELISA signal (pep05): 0.15 and 0.17
ELISA signal (pep19): 0.11 and 0.15

B4: Chimeric antibody 63A10 (antibody, human IgG1, V domains shown)
VH: QVQLQQSGAELARPGASVKMSCKASGYTFISFTMHWVKQRPGQGLEWIGYINPNSGYTKYNQKFKDKATLTAGQSSSTAYMQLSSLTSEDSAVYYCTRGGGRGFAYWGQGTLVTVSA
VL: DILMTQSPSSMSVSLGDTVTITCHASQDINSNIGWLQQKPGKSFKALIYHGTNLEDGVPSRFSGSGSGADYSLTISSLESEDFADYYCVQYAQFPFTFGSGTKLEIK
notes: also called c63A10A7; chimeric antibody c63A10A7
EC50 [19]: 2.2 nM
EC50 [20]: 0.22 nM
Maximum OD450 value [20]: 3.6 OD450
EC50 [21]: 3.8 nM
Maximum mean fluorescence intensity [21]: 11600 MFI
EC50 [22]: 696 nM
OD450 nm at 0.0001 nM antibody [23]: 0.07 OD450
OD450 nm at 0.001 nM antibody [23]: 0.11 OD450
OD450 nm at 0.01 nM antibody [23]: 0.37 OD450
OD450 nm at 0.1 nM antibody [23]: 1.05 OD450
OD450 nm at 1 nM antibody [23]: 3.33 OD450
OD450 nm at 10 nM antibody [23]: 3.55 OD450
OD450 nm at 100 nM antibody [23]: 3.55 OD450
